These results are taken from US20210388081A1 (Memorial Sloan Kettering, published 2021).

In test [1] the target is T1, FcRL1, overexpressed on 3T3 cells (UniProt Q96LA6 17-429, limits assumed).
T1 construct: whole, on cells
T1 sequence (looked up): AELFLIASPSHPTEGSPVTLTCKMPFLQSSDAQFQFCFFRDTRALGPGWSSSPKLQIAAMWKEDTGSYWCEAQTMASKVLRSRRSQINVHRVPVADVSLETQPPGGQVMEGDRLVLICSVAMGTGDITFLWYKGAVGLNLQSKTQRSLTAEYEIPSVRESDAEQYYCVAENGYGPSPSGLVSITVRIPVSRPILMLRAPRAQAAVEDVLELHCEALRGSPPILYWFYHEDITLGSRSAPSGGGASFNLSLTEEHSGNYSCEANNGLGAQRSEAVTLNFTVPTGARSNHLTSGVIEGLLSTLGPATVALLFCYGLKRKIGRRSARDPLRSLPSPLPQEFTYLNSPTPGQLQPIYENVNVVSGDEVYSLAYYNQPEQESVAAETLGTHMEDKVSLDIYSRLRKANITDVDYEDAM
The test is described as follows: phage clone on 3T3-FcRL1 cells.

The target in test [2] is T2, FcRL4, overexpressed on 3T3 cells (UniProt Q96PJ5 20-515, limits assumed).
T2 construct: whole, on cells
T2 sequence (looked up): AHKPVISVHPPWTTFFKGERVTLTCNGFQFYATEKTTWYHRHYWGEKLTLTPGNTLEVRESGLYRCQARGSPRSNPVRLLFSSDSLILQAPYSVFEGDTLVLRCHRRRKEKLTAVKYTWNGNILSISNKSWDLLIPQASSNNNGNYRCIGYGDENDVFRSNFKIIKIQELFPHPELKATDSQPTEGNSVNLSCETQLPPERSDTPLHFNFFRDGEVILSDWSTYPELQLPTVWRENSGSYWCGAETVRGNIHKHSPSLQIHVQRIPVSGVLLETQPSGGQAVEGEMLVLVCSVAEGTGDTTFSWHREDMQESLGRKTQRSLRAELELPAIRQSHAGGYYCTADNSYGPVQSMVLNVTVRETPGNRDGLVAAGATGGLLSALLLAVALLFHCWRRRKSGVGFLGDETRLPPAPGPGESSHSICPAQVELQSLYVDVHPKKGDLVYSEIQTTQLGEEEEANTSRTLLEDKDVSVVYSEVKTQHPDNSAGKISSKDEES
The test is described as follows: phage clone on 3T3-FcRL4 cells.

B1: ET200-098 (scFv)
scFv: QPVLTQPPSVSKGLRQTATLTCTGNSNNVGNLGVAWLQQHQGHPPKLLSYRNNNRPSGISERLSASRSGNTASLTITGLQPEDEADYYCSAWDSSLSAWVFGGGTKLTVLGSRGGGGSGGGGSGGGGSLEMAEVQLVESGGVVVQPGGSLRLSCAASGFTFDDYAMHWVRQAPGKGLEWVSLINWDGGSTYYADSVKGRFTISRDNSKNSLYLQMNSLRAEDTALYYCAKGMGLRAFDYWGQGTLVTVSSTSGQAGQHHHHHHGAYPYDVPDYAS
notes: screened as phage clone; entry is VL-linker-VH-His tag-HA tag
Regarding B1, the binding result in test [1] and in test [2] was “no binding” throughout.

B2: ET200-081 (scFv)
scFv: QSALTQPASVSGSPGQSITISCTGTSSDIGGYNYVSWYQQHPGKAPKLMIYDVSNRPSGVSNRFSGSKSGNTASLTISGLQAEDEADYYCISYTRTWNPYVFGSGTKVTVLGSRGGGGSGGGGSGGGGSLEMAEVQLVQSGGGVVQPGGSLRLSCAASGFTFDDYAMHWVRQAPGKGLEWVSLISGDGGSTYYADSVKGRFTISRDNSKNSLYLQMNSLRTEDTALYYCAKDRAAAGYYYYGMDVWGQGTTVTVSSTSGQAGQHHHHHHGAYPYDVPDYAS
notes: as for B1
Turning to B2, the binding result in test [1] and in test [2] was “no binding” each time.

B3: ET200-069 (scFv)
scFv: QSVVTQPPSASGTPGQRVTISCSGSSSNIGSNYVYWYQQLPGTAPKLLIYSNNQRPSGVPDRFSGSKSGTSASLAISGLRSEDEADYYCAAWDDSLSGYVFGTGTKLTVLGSRGGGGSGGGGSGGGGSLEMAQVQLQQWGAGLLKPSETLSLTCAVYGGSFSGYYWSWIRQPPGKGLEWIGEINHSGSTNYNPSLKSRVTISVDTSKNQFSLKLSSVTAADTAVYYCARLYEGGYHGWGSWLSSDSWGQGTLVTVSSTSGQAGQHHHHHHGAYPYDVPDYAS
notes: screened as phage clone; entry is VL-linker-VH-His tag-HA tag; also called ET200-69
As to B3, the binding result in test [1] and in test [2] was “no binding” each time.

B4: ET200-101 (scFv)
scFv: QAVLTQPPSASGAPGQRVTVSCSGSNSNIGSNYVNWYQQFPGTAPKLLMYSSSQRPSGVPDRFSGSKSGTSASLAISGLHSEDEADYYCATWDDSLNAWVFGGGTKLTVLGSRGGGGSGGGGSGGGGSLEMAEVQLVQSGAEVRKPGASVKVSCKTSGYTFTWYAIHWVRQAPGQRLEWMGWINAGSGNTKYSQKFQGRVTLTRDTSASTAYMELSSLRSDDTAVYYCARPNNYGSGGDVFDIWGQGTMVTVSSTSGQAGQHHHHHHGAYPYDVPDYAS
notes: as for B1
In the case of B4, the binding result in test [1] and in test [2] was “no binding” each time.

B5: ET200-079 (scFv)
scFv: SYELTQPPSASGTPGQRVTISCSGSSSNIGSNYVYWYQQLPGTAPKLFIYRNNQRPSGVPDRFSGSKSGTSASLAISGLRSEDEADYYCAAWDDSLSGYLFGTGTKVTVLGSRGGGGSGGGGSGGGGSLEMAEVQLVESGGGLVQPGRSLRLSCAASGFTFDDYAMHWVRQAPGKGLEWVSGISWNSGSIGYADSVKGRFTISRDNAKNSLYLQMNSLRAEDTALYYCANGDSNYYYGMDVWGQGTTVTVSSTSGQAGQHHHHHHGAYPYDVPDYAS
notes: as for B1
For the molecule B5, the binding result in test [1] and in test [2] was “no binding” each time.

B6: ET200-102 (scFv)
scFv: QSVVTQPPSVSAAPGQKVTISCSGSSSNIGNNYVSWYQQLPGTAPKLLIYDNNKRPSGIPDRFSGSKSGTSATLGITGLQTGDEADYYCGTWDSSLSAYVFGTGTKVTVLGSRGGGGSGGGGSGGGGSLEMAQVQLVQSGAEVKKPGASVKVSCKASGYTFTNYALHWVRQAPGQGLEWMAWINGGNGNTKYSQNFQGRVTITRDTSASTAYMELSSLRSEDTAVYYCAKPEETAGTIHFDYWGQGTPVTVSSTSGQAGQHHHHHHGAYPYDVPDYAS
notes: as for B1
Take B6: the binding result in test [1] and in test [2] was “no binding” throughout.

B7: ET200-100 (scFv)
scFv: NFMLTQPHSVSESPGKTVTISCTRSSGSIASNFVQWYQQRPGSAPTPMIYEDNNRPPGVPDRFSASVDSSSNSASLTISGLKTEDEADYYCQSYDTSNVVFGGGTKLTVLGSRGGGGSGGGGSGGGGSLEMAEVQLVESGGGLVQPGGSLRLSCAASGFTFSSYEMNWVRQAPGKGLEWVSYISSSGSTIYYADSVKGRFTISRDNAKNSLYLQMNSLRAEDTAVYYCARWDYGMDVWGQGTTVTVSSTSGQAGQHHHHHHGAYPYDVPDYAS
notes: as for B1
Turning to B7, the binding result in test [1] and in test [2] was “no binding” in each case.

B8: ET200-104 (scFv)
scFv: NFMLTQPHSVSESPGKTVTISCTRSSGSIASNYVQWYQQRPGSAPTTVIYEDNQRPSGVPDRFSGSIDSSSNSASLTISGLKTEDEADYYCQSYDSSNVVFGGGTKVTVLGSRGGGGSGGGGSGGGGSLEMAEVQLVESGGGLVQPGGSLRLSCAASGFTFSSYEMNWVRQAPGKGLEWVSYISSSGSTIYYADSVKGRFTISRDNAKNSLYLQMNSLRAEDTAVYYCARWDYGMDVWGQGTTVTVSSTSGQAGQHHHHHHGAYPYDVPDYAS
notes: as for B1
Consider B8, for which the binding result in test [1] and in test [2] was “no binding” in each case.

B9: ET200-099 (scFv)
scFv: QSVLTQPPSASGTPGQRVTISCSGSSSNIGSNTVNWYQQLPGTAPKLLIYSNDQRPSGVPDRFSGSKSGTSASLAISGLQSEDEADYYCASWDDSLNGRYVFGTGTKVTVLGSRGGGGSGGGGSGGGGSLEMAQVQLVQSGAEVRKPGASVKVSCKTSGYTFSWYAIHWVRQAPGQRLEWMGWINAGNGNTKYSQKFQGRVSLTRDTSASTAYMELSSLRSDDTAVYYCARPDNYGSGGDVFDIWGQGTMVTVSSTSGQAGQHHHHHHGAYPYDVPDYAS
notes: as for B1
On to B9, for which the binding result in test [1] and in test [2] was “no binding” in each case.

B10: ET200-006 (scFv)
scFv: SYVLTQPPSVSVAPGKTARITCGGNNIGSKSVHWYQQKPGQAPVVVIHYDSDRPSGIPERFSGSNSGNTATLTISRVEAGDEADYYCQVWDSSSDHPYVFGTGTKVTVLGSRGGGGSGGGGSGGGGSLEMAEVQLVQSGAEVKKPGASVKVSCKASGYTFTTYGISWVRQAPGQGLEWMGWINTYNGHTNYAQKLQGRATMTADTSTNTAYMELRSLRSDDTAVYYCARVIYGSGDYWGQGTLVTVSSTSGQAGQHHHHHHGAYPYDVPDYAS
notes: as for B1
B10: the binding result in test [1] and in test [2] was “no binding” throughout.

B11: ET200-045 (scFv)
scFv: QPVLTQPPSVSVAPGKTATITCGGNNIGSESVHWYHQKPGQAPVLVIYDDAGRPSGIPERFTGSNSGNTATLTISRVEAGDEADYYCQVWDRNSAQFVFGPGTKVTVLGSRGGGGSGGGGSGGGGSLEMAEVQLVQSGAEVKKPGASVKVSCKASGYTFTSYGISWVRQAPGQGLEWMGWISAYNGNTNYAQKLQGRVTMTTDTSTSTAYMELRSLRSDDTAVYYCARGVHLDWWGQGTLVTVSSTSGQAGQHHHHHHGAYPYDVPDYAS
notes: as for B1
Consider B11, for which the binding result in test [1] and in test [2] was “no binding” in each case.

B12: ET200-042 (scFv)
scFv: QSVVTQPPSVSGAPGQTVTISCTGGSSNIGTGYFVNWYQQVPGKAPKLLILGNNNRPSGVPDRLSGSTSGTSASLAITGLQAEDEGTYYCQSYDSSLSGYVFGTGTKVTVLGSRGGGGSGGGGSGGGGSLEMAQVQLQQSGPGLVKPSQTLSLTCGISGDSVSTNSVAWHWIRQSPSRGLEWLGRTYYRSKWSNDYGVSVKSRITIIPDTSKNQFSLQLNSVTPEDTAVYYCARSSSWYQIFDYWGQGTLVTVSSTSGQAGQHHHHHHGAYPYDVPDYAS
notes: as for B1
With B12, the binding result in test [1] and in test [2] was “no binding” in each case.

B13: ET200-097 (scFv)
scFv: LPVLTQPPSVSVSPGQTAIITCSGDKLGEKYVSWYQQKPGQSPVLVIDQDTRRPSGIPERFSGSNSGTTATLTISGTQAMDEADYYCQAWDRGVVFGGGTKLTVLGSRGGGGSGGGGSGGGGSLEMAEVQLVESGGDLVQPGRSLRLSCAASGFTFNDYAMHWVRQAPGKGLEWVSGISWSGNNIGYADSVKGRFTISRDNAKNSLYLQMNSLRAEDTALYYCAKDSIRYGITWGGFDYWGQGTLVTVSSTSGQAGQHHHHHHGAYPYDVPDYAS
notes: as for B1
Consider B13, for which the binding result in test [1] and in test [2] was “no binding” in each case.

B14: ET200-044 (scFv)
scFv: QSVLTQPPSVSVSPGQTATIACSGHKLGDKYASWYQQKSGQSPVLIIYQDNKRPSGIPERFSGSNSGNTATLTISGTQALDEADYYCQAWDSSTYVAFGGGTKLTVLGSRGGGGSGGGGSGGGGSLEMAQVQLQESGPGLVKPSETLSLTCVVSGGSISSSNWWSWVRQPPGKGLEWIGEIYHSGSPNYNPSLKSRVTISVDKSKNQFSLKLSSVTAADTAVYYCARMTTHTFGYDAWGQGTLVTVSSTSGQAGQHHHHHHGAYPYDVPDYAS
notes: as for B1
Turning to B14, the binding result in test [1] and in test [2] was “no binding” in each case.
